{
  "source": "paper PMC9293779",
  "about": "(2022)",
  "biological_target": "Unmodified H3 (15–39) (Homo sapiens, matured GFP-type chromophore; AG itself is the assayed negative control. Accession is from memory; wild-type AG assumed rather than the monomeric version)",
  "test": "ITC",
  "data": [
    {"binder": "Azami-Green (AG) protein alone (natural protein) MSVIKPEMKIKLCMRGTVNGHNFVIEGEGKGNPYEGTQILDLNVTEGAPLPFAYDILTTVFQYGNRAFTKYPADIQDYFKQTFPEGYHWERSMTYEDQGICTATSNISMRGDCFFYDIRFDGVNFPPNGPVMQKKTLKWEPSTEKMYVRDGVLKGDVNMALLLEGGGHYRCDFKTTYKAKKDVRLPDYHFVDHRIEILKHDKDYNKVKLYENAVARYSMLPSQAK", "values": [
      {"measurement": "Kd", "value": "> 1000", "unit": "µM"}
    ]}
  ]
}
